This is an account of results in patent US20240101687A1 (ABL BIO, published 2024).

Experiment [1] addresses T1, human IGF1R extracellular domain, His-tagged (human, UniProt P08069 31-932).
T1 construct: Bought (R&D Systems 391-GR or Sino Biological 10164-H08H); also called recombinant IGF1R; ECD of IGF1R
In words: SPR (Biacore), human IGF1R ECD-His captured by anti-His antibody on CM4 chip, 1564-IgG as analyte, bivalent analyte fit, 25 C; upper panel.
Description: (§1) The anti-his antibody against the His tag bound to the human IGF1R ECD as an antigen was diluted to 20 μg/ml in acetate pH4.0 buffer, and then immobilized in the reference/analytic channel of the CM4 chip to 10,000 RU as a target RU according to the amine coupling method. During capture, PBS was used as a running buffer, and the flow rate was maintained at 30 μL/min. During association/dissociation, the flow rate was 40 μL/min, and PBS was used as the running buffer. The association/dissociation was 5 minutes and 20 minutes, respectively.

The target in experiment [2] is T1, human IGF1R extracellular domain, …. Put plainly: SPR (Biacore T200), His-tagged human IGF1R ECD captured by anti-His antibody on CM4 chip, bivalent model; 1564 IgG.
Description: as §1
The target is the same in experiment [3]. Put plainly: SPR (Biacore), human IGF1R ECD-His captured by anti-His antibody on CM4 chip, 1564-IgG as analyte, bivalent analyte fit, 25 C; lower panel. In general terms: SPR reads the build-up and loss of mass on a sensor chip optically.
Description: as §1
The target is the same in experiment [4]. In words: ELISA, IGF1R coated, anti-human Fab-HRP.
Description: To this end, firstly, human, monkey, mouse and rat IGF1R antigens were diluted to 1 ug/ml, added to each well 100 ul, and reacted at 4° C. for 15 hours to be coated on the bottom of the plate. After removing the supernatant, 200 ul of PBS buffer containing 3% BSA was treated in each well to block non-specific binding. The anti-IGF1R antibodies were diluted by 5 times in PBSB (BSA 3% in PBS) at a maximum concentration of 400 nM, treated in each well, and reacted at 37° C. for 1 hour. Then, after washing with PBS buffer 5 times, the anti-human Fab HRP recognizing the Fab portion of the bound antibody was diluted 1:20000 was treated at 100 ul of each well, and reacted at 37° C. for 1 hour. The product was washed 5 times with PBS buffer and the color development was performed with TMB (Tetramethylbenzidine, Sigma, T0440) according to the manufacturer's method. […] When many samples are used in the ELISA analysis, the plates were divided into two.
The target of experiment [5] is T2, mouse IGF1R on bEND.3 brain endothelial cells (mouse, UniProt Q60751 31-1373).
T2 construct: whole, on cells; also called IGF1R expressed on the surface of brain endothelial cells
Put plainly: FACS on bEND.3 mouse brain endothelial cells; MFI of secondary Ab only 3.20.

For experiment [6], the target named is T3, human alpha-synuclein aggregates (fibrils) (human, UniProt P37840 1-140). Put plainly: SPR (BIAcore), antibody captured on Protein A chip, alpha-synuclein fibril (sample aSyn180330) as analyte, 1:1 binding fit, 25 C.
Description: (§2) The running buffer, analyte dilution, and the sample dilution buffer were HBS-EP. […] For the capture, the monomer was for RU of 800 (theoretical), and a fibril was for RU of 100 (theoretical). The capture phase was performed at contact time of 60 seconds, a flow rate of 30 μl/min, and a stabilization period of 180 seconds. The association phase was performed at the association time of 120 seconds and the flow rate was 30 μl/min. The dissociation phase was performed at the dissociation time of 360 seconds and the flow rate of 30 l/min. The regeneration phase was performed twice time at the regeneration time of 240 seconds (primary) and 60 seconds (secondary) and a flow rate of 30 μl/min. The fitting was carried out suing 1:1 binding model, and the evaluation software was BIACore T200 Evaluation software (GE healthcare).
The target of a further experiment is T4, Tau protein aggregates (UniProt P10636-8 1-441, limits assumed).
T4 construct: aggregates prepared by Prof; Seung-jae Lee; also called tau-derived aggregates
In words: dot blot.

In a further experiment the target is T5, human beta-synuclein (human, UniProt Q16143 1-134, limits assumed).
T5 construct: bought
Put plainly: ELISA, human beta-synuclein coated at 100 ng/ml. For orientation: In an ELISA, binding on a coated surface is turned into a signal by an enzyme label.

The target in another experiment is T6, human gamma-synuclein (human, UniProt O76070 1-127, limits assumed).
T6 construct: bought
In words: ELISA, human gamma-synuclein coated at 100 ng/ml.

Experiment [7] concerns the target T3, human alpha-synuclein aggregates …. In words: sandwich ELISA, antibody coated 0.04-400 nM, fibril aggregates 2000 ng/ml.
Description: Specifically, each antibody was diluted at 1/10 ratio of concentrations 0.04 to 400 nM and was coated on a 96-well plate, and then each well was treated with synuclein fibril aggregates were treated at 2000 ng/ml. After washing with 1×PBS, streptavidin conjugated with HRP and secondary antibody conjugate with biotin was treated and then reacted with TMB as a substrate. The absorbance was measured.
Experiment [8] has as its target T7, amyloid beta1-42 aggregates (UniProt P05067 672-713).
T7 construct: domain: amyloid beta1-42; aggregates prepared by Prof; Seung-jae Lee; also called amyloid beta1-42-derived aggregates
Put plainly: dot blot, monomer and fibril of each protein spotted in rising amounts, antibody as probe.
Description: (§3) The specific binding ability of the antibodies to the alpha-synuclein aggregate was analyzed by reacting with a blot.

Another experiment addresses T8, Aβ42 (Monomer) (human, UniProt P05067).
T8 construct: recombinant, monomer (not aggregated); m20 is the aggregated form; also called amyloid beta1-42 monomer
The experiment is described as above.

Experiment [9] deals with T3, human alpha-synuclein aggregates …. Put plainly: ELISA, alpha-synuclein aggregates coated at 1 ug/ml, antibody titrated 5-fold from 400 nM, anti-human Fc-HRP; C of the 4-P fit.
Description: (§4) The alpha-synuclein aggregates were coated on a 96-well plate at a concentration of 1 ug/ml for 18 hours, and after washing, was treated with each antibody by diluting by 5 times from 400 nM. The bound antibodies were bound to anti-human Fc-HRP and then performed by color development with TMB solution, to measure the degree of binding of the antibody.
Experiment [10] deals with T1, human IGF1R extracellular domain, …. Put plainly: ELISA on coated IGF1R, antibody titrated up to 400 nM; C of the 4-P fit, D 2.68; curve at baseline up to about 3 nM, about 0.8 at 80 nM and 1.75 at 400 nM, no plateau in the data; the text says the single antibody did not bind.
Experiment [11] addresses T3, human alpha-synuclein aggregates …. Put plainly: SPR (BIAcore), antibody captured on Protein A chip, alpha-Syn fibril as analyte, 1:1 binding fit, 25 C.
Experiment [12] has the same target. In words: BIAcore as in Example 4-3, α-syn aggregates.
Description: as §2
Experiment [13] deals with T2, mouse IGF1R on bEND.3 brain endothelial …. Put plainly: FACS on bEND.3 mouse brain endothelial cells.
The target in experiment [14] is T3, human alpha-synuclein aggregates …. In words: ELISA, alpha-synuclein aggregates coated, antibody titrated up to 400 nM; C of the 4-P fit.
Description: as §4
The target in experiment [15] is T1, human IGF1R extracellular domain, …. In words: ELISA on coated IGF1R, antibody titrated up to 400 nM; C of the 4-P fit, D 0.945; curve at baseline up to 16 nM, about 0.2 at 80 nM and 0.75 at 400 nM, no plateau in the data; the text says the single antibody did not bind.

T2 sequence (Q60751 31-1373): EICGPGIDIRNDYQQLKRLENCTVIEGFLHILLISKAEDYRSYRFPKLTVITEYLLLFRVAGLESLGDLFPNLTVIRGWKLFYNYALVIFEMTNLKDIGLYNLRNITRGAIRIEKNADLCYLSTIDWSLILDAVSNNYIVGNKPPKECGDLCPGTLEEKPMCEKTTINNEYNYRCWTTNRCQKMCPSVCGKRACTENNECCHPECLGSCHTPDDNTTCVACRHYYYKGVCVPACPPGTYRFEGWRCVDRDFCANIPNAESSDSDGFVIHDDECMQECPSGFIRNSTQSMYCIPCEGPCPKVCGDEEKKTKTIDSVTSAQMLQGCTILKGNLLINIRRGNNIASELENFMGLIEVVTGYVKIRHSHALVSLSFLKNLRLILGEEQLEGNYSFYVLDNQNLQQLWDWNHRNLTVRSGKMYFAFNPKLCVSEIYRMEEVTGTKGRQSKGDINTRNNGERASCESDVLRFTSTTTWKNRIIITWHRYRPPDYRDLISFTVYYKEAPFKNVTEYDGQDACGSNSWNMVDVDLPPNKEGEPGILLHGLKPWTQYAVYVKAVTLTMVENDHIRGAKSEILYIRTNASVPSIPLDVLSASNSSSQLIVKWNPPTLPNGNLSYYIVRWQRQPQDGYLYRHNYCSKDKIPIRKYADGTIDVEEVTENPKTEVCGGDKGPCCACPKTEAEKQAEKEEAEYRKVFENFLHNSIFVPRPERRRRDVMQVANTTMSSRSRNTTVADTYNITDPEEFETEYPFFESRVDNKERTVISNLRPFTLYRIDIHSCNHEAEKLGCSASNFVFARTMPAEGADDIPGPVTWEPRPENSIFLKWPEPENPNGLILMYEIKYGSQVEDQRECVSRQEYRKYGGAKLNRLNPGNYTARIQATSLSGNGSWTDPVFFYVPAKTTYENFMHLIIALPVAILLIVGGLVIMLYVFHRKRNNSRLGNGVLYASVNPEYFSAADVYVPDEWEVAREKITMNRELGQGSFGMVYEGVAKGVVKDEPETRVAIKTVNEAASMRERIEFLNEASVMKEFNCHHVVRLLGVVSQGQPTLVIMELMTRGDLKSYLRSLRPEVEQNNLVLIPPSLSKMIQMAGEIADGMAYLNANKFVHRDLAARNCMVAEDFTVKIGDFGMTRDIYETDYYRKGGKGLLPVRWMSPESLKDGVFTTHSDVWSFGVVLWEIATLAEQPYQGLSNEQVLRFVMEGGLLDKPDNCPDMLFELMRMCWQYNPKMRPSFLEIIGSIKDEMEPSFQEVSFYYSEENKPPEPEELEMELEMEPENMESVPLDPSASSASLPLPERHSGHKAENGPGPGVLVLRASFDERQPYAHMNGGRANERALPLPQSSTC
T4 sequence (P10636 other isoform, or with tags, fused parts or gaps limits assumed): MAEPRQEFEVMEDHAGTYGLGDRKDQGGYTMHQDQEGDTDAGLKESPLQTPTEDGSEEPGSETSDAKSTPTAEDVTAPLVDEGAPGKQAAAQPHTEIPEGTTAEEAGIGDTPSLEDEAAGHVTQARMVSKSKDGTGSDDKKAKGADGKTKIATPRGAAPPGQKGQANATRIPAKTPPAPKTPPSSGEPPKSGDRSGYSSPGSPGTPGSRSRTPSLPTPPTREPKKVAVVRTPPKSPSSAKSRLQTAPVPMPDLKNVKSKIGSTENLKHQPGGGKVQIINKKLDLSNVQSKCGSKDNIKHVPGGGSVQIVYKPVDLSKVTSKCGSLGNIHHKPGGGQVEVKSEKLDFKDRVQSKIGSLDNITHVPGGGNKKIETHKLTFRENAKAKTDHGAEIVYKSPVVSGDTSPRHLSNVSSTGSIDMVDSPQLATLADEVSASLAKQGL
T5 sequence (Q16143 whole entry): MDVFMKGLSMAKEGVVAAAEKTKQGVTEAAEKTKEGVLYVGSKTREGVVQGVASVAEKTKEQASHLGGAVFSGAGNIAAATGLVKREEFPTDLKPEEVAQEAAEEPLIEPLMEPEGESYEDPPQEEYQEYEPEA
T6 sequence (O76070 whole entry): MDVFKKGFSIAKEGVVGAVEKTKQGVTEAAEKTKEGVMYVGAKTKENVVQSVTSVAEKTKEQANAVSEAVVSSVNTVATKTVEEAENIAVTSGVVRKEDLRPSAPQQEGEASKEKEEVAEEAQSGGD
Description for Aβ42 (Monomer): as §3
Excerpt for human beta-synuclein: (§5) For the positive control, RP-bound goat anti-rabbit was used as a detection antibody.
Excerpt for human gamma-synuclein: as §5

B1: 1564 IgG (antibody, V domains shown)
VH: EVQLLESGGGLVQPGGSLRLSCAASGFTFSSYDMSWVRQAPGKGLEWVSAISYDNGNTYYADSVKGRFTISRDNSKNTLYLQMNSLRAEDTAVYYCAKGVLTTLMNWFDYWGQGTLVTVSS
VL: QSVLTQPPSASGTPGQRVTISCTGSSSNIGSNDVSWYQQLPGTAPKLLIYANSNRPSGVSDRFSGSKSGTSASLAISGLRSEDEADYYCGAWDDSLNGYVFGGGTKLTVLR
For B1, in [1], the koff (usually the first-order rate constant of dissociation) amounted to 2.41e-06 s⁻¹ and the kon (in general, a measure of how fast the partners come together) is 902 M⁻¹ s⁻¹. The Kd in [2] came out at 2.53 nM. This molecule also came in with a koff in experiment [3] of 2.53e-06 s⁻¹. Besides, the EC50 (in general, the concentration needed to bring the measured effect to its halfway point) in experiment [4] was determined as 0.0823 nM. The MFI in [5] turned out to be 7.55.

B2: chimeric 11F11 antibody (antibody, V domains shown)
VH: EVQLQESGGGLVQPGGSLRLSCATSGFTFSDFYMEWVRQPPGKRLEWIAASRNKANDYTTEYSASVKGRFIVSRDTSQSILYLQMNALRAEDTAIYYCARDAHGKPFAYWGQGTLVTVSA
VL: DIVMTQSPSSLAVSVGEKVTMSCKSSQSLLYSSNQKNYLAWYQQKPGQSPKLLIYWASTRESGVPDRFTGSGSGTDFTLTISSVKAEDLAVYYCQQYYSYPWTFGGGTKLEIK
notes: also called Ch11F11; ch11F11
For the molecule B2, the values for the koff in experiment [6] and in [11] were 0.000563 s⁻¹ and 8.88e-05 s⁻¹, respectively. For the same molecule, the kon in [6] came out at 609000 M⁻¹ s⁻¹; in [11], 193000 M⁻¹ s⁻¹. Further, the binding result (in the experiment with Tau protein aggregates; in the experiment with human beta-synuclein; with human gamma-synuclein; in [8]; with Aβ42 (Monomer); in [13]) was “no binding” in each case. Further, the EC50 turned out to be 12.5 nM in experiment [7]; 33.8 nM in experiment [9]; 201 nM in [10]; 1.27 nM in experiment [14]; 196 nM in experiment [15]. Further, the MFI in [5] came to 3.26. The molecule further came in with a Kd in [12] of 0.0247 nM.
